This is an account of results in patent US20240360242A1 (KISOJI BIOTECHNOLOGY, published 2024).

Common to all, as to experiment: flow cytometry, 100 nM antibody, transiently transfected HEK cells, APC anti-human Fc
Background: In flow cytometry, cells or beads pass a laser one at a time.

Assay [1] addresses T1, HEK-TROP2 Δ27-44.
T1 construct: also called TROP2 delta 27-44
T1 membrane protein on transfected HEK cells: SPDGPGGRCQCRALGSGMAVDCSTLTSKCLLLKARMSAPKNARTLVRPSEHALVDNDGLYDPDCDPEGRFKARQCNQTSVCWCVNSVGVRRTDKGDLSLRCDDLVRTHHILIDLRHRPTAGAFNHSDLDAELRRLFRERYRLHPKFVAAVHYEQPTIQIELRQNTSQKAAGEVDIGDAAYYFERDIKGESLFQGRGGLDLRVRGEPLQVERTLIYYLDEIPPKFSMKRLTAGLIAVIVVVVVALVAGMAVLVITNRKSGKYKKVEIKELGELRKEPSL
The procedure:
(§1) To determine the effect of TROP2 truncations on the binding ability of anti-TROP2 sdAbs, the HEK parental cells were transiently transfected with human TROP2 mutants by lipofectamine. 24 hours after transfection, cells were collected and stained with anti-TROP2 antibodies (FIG. 13A and FIG. 13B). In brief, 1×10⁵ cells were incubated with an Fc receptor blocking antibody (1/100 dilution) for 10 minutes at room temperature. Anti-TROP2 antibodies were diluted in FACS staining buffer to 100 nM and added and incubated with cells for 30 minutes on ice. After washing three times with FACS staining buffer, APC-conjugated secondary antibodies recognizing the human Fc region (Biolegend, Cat #410712) were mixed with cells. After staining for 30 minutes, cells were washed three times, followed by resuspension into 100 μL of 7-Amino-Actinomycin D (7-AAD) solution (BD Biosciences, Cat #559925).

Assay [2] deals with T2, HEK-TROP2 Δ27-36.
T2 construct: also called TROP2 delta 27-36
T2 membrane protein on transfected HEK cells: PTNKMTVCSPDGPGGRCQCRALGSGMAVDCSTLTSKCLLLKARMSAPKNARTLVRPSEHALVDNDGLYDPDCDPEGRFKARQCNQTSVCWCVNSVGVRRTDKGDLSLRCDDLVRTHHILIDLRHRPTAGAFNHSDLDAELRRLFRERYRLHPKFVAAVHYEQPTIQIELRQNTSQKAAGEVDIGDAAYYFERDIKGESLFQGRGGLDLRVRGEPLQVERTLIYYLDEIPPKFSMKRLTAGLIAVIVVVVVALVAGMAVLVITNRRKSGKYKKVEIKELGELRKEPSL
The protocol: as §1

Assay [3] concerns the target T3, HEK-TROP2 Δ27-126 (human, UniProt P09758).
T3 construct: deletion of residues 27-126, transiently expressed on HEK cells
T3 sequence (membrane protein on transfected HEK cells, looked up): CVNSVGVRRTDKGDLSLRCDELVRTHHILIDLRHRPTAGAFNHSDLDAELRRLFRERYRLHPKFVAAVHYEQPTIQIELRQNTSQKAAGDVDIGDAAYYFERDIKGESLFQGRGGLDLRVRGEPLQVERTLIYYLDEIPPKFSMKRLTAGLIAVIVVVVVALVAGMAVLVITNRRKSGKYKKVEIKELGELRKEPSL
The procedure: as §1

Assay [4] deals with T4, HEK-TROP2 Δ27-96 (human, UniProt P09758).
T4 construct: deletion of residues 27-96, transiently expressed on HEK cells
T4 sequence (membrane protein on transfected HEK cells, looked up): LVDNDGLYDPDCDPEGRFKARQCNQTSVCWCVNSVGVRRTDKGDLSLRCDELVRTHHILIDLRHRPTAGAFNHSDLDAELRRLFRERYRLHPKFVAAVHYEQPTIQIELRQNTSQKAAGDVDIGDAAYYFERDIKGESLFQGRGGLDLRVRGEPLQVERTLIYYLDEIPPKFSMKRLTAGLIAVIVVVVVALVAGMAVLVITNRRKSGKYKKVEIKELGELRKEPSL
The protocol:
as §1

Assay [5] addresses T5, HEK-TROP2 Δ27-104 (human, UniProt P09758).
T5 sequence (membrane protein on transfected HEK cells, looked up): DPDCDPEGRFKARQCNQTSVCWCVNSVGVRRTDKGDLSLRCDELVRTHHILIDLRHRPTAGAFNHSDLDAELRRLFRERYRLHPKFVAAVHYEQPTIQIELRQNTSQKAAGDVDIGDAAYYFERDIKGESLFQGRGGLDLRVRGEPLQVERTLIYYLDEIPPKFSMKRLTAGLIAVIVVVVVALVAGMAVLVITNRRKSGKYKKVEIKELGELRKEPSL
The protocol:
as §1

The target in assay [6] is T6, TROP2 delta 27-56 on HEK cells (human, UniProt P09758 1-323).
T6 construct: Human TROP2 with residues 27-56 deleted, transiently transfected into HEK cells; also called TROP2 with 27-56 regions truncated
T6 chain: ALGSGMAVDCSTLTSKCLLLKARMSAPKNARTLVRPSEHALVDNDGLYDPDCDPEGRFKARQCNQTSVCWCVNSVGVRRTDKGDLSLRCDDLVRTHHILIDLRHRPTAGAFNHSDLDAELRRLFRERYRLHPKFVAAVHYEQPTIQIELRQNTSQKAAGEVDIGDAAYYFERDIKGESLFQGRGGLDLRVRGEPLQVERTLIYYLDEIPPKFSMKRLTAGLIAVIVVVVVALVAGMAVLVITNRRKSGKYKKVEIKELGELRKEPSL
The procedure:
as §1

The target of assay [7] is T7, HEK-TROP2 Δ27-73 (human, UniProt P09758).
T7 construct: deletion of residues 27-73, transiently expressed on HEK cells
T7 sequence (membrane protein on transfected HEK cells, looked up): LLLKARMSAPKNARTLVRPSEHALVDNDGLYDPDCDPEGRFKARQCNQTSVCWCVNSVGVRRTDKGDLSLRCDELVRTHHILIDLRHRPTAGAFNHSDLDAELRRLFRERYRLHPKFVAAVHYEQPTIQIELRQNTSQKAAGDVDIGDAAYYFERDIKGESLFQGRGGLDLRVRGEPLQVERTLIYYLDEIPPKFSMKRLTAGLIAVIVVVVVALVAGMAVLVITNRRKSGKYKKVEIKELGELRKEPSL
The protocol:
as §1

B1: KD002 (antibody, human IgG1, V domains shown)
VH: QVQLQESGGGMVQVGGSLRLSCAASGFPFSSADMSWVRQAPGKGPEWVSYINADGSKTYYPDSVKGRFTISRDNAKNTLYLLMNNLKPEDTALYRCARAKLTDTHYVEDYWGQGTQVTVSS
notes: also called anti-TROP2 sdAb KD002
Consider B1, for which the binding result in assay [1] is on record as “binds”; in assay [2] it was “binds”; in assay [3] it was “no binding (tested: 100 nM)”; in assay [4], “no binding (tested: 100 nM)”; in assay [5], “no binding (tested: 100 nM)”; in assay [6], “no binding (tested: 100 nM)”. For the same molecule, the binding result in assay [7] is given as “no binding (tested: 100 nM)”.

B2: KD003 (antibody, human IgG1, V domains shown)
VH: QVQLQESGGGMVQPGGSLRLSCAASGFTFSNYDMSWVRQAPGKGPEWVSYINAGGSNTDYPDSVKGRFTISRDNAKNMLYLLMNNLKPEDTALYRCARAKLTDTHYVEDYWGQGTQVTVSS
notes: also called anti-TROP2 sdAb KD003
As to B2, the binding result is on record as “binds” in assay [1]; “binds” in assay [2]; “no binding (tested: 100 nM)” in assay [3]; “no binding (tested: 100 nM)” in assay [4]; “no binding (tested: 100 nM)” in assay [5]; “no binding (tested: 100 nM)” in assay [6]. Also, the binding result in assay [7] is “no binding (tested: 100 nM)”.

B3: KD001 (antibody, human IgG1, V domains shown)
VH: QVQLQESGGGMVHPGGSLRLSCAASGFTFSGSDMSWVRQAPGKGPEWVSYITSGGTTYYPDSVKGRFTISRDNAKNTLYLQMNSLTPDDTALYRCAKARLTDSHYVEDAWGQGTQVTVSS
notes: also called anti-TROP2 sdAb KD001
For the molecule B3, the binding result in assay [1] was “binds”; in assay [2], “binds”; in assay [3], “no binding (tested: 100 nM)”; in assay [4], “no binding (tested: 100 nM)”; in assay [5], “no binding (tested: 100 nM)”; in assay [6], “no binding (tested: 100 nM)”. In addition, in assay [7], the binding result is listed as “no binding (tested: 100 nM)”.

B4: KD004 (antibody, human IgG1, V domains shown)
VH: QVQLQESGGGLVQPGRSLRLSCAASGFTFSGSDMSWVRQAPGKGPEWVSYITGSGTTYYPDSVKGRFTTSRDNAKNMLYLQMNSLKPDDTALYRCAKARLTDSHYVEDAWGQGTQVTVSS
notes: also called anti-TROP2 sdAb KD004
For the molecule B4, the binding result in assay [1] is “binds”; in assay [2], “binds”; in assay [3], “no binding (tested: 100 nM)”; in assay [4] it was “no binding (tested: 100 nM)”; in assay [5], “no binding (tested: 100 nM)”; in assay [6], “no binding (tested: 100 nM)”. In assay [7], the binding result was “no binding (tested: 100 nM)”.

B5: KD005 (antibody, human IgG1, V domains shown)
VH: QVQLQESGGGLVEAGGSLRLSCAASGFTFSGSDMSWVRQAPGKGPEWVSYITSGGTTYYPDSVKGRFTISRDNAKNTLYLQMNSLKPDDTALYRCAKSRLTDSHYVEDAWGQGTQVTVSS
notes: also called anti-TROP2 sdAb KD005
For B5, the binding result is recorded as “binds” in assay [1]; “binds” in assay [2]; “no binding (tested: 100 nM)” in assay [3]; “no binding (tested: 100 nM)” in assay [4]; “no binding (tested: 100 nM)” in assay [5]; “no binding (tested: 100 nM)” in assay [6]. Besides, in assay [7], the binding result was “no binding (tested: 100 nM)”.

B6: KD007 (antibody, human IgG1, V domains shown)
VH: QVQLQESGGGLVQPGGSLRLSCAASGFAFSFYAMAWYRQAPGKQRDMVATITAYGNTNYADSVKGRFTTSRDNAKNTVYLQMNSLKPEDTAVYVCNANLPSASHNYWGQGTQVTVSS
notes: also called anti-TROP2 sdAb KD007
Turning to B6, the binding result in assay [1], in assay [2], in assay [3], in assay [4], in assay [5] and in assay [6] was “no binding (tested: 100 nM)” each time. In assay [7], the binding result is “no binding (tested: 100 nM)”.
